Stoichiometry N data for one substance are collected here from publication PMC11961569.

The test concerns the target EfpA^EM (BRIL-P171R EfpA, Mycobacterium tuberculosis efflux protein A) (not stated | Mycobacterium tuberculosis) (UniProt P9WJY4). Nature of the test: cryo-EM structure; EfpA-EM mixed with anti-BRIL Fab and anti-Fab elbow Nb (1:1.5:2), separated on Superose 6 in 50 mM Tris-Cl pH 7.5, 300 mM NaCl, 0.02% GDN; apo sample gave antiparallel (dominant) and parallel dimers; samples with BRD-8000.3 or BRD-9327 gave antiparallel dimers.

Turning to “EfpA^EM (BRIL-P171R EfpA, Mycobacterium tuberculosis efflux protein A) (from UniProt P9WJY4 49-530)”, the stoichiometry N was determined as 2.
